Data from patent US20240052042A1 (Novartis, published 2024).
Residue numbers refer to the chain shown, from its start. Like-named read-outs stand apart in the source and are kept apart here.

Assays:
[1] = molecular target: T1, human NPR1 on CHO-K1 cells in the presence of ANP (human, UniProt P01160 124-151); test: flow cytometry (FL2-H) on hNPR1 CHO-K1 cells with saturating ANP, IgG titrated; control parental CHO-K1 [panel YY02]
T1 construct: also called hNPR1 CHO K1 + 100 nM ANP
T1 sequence: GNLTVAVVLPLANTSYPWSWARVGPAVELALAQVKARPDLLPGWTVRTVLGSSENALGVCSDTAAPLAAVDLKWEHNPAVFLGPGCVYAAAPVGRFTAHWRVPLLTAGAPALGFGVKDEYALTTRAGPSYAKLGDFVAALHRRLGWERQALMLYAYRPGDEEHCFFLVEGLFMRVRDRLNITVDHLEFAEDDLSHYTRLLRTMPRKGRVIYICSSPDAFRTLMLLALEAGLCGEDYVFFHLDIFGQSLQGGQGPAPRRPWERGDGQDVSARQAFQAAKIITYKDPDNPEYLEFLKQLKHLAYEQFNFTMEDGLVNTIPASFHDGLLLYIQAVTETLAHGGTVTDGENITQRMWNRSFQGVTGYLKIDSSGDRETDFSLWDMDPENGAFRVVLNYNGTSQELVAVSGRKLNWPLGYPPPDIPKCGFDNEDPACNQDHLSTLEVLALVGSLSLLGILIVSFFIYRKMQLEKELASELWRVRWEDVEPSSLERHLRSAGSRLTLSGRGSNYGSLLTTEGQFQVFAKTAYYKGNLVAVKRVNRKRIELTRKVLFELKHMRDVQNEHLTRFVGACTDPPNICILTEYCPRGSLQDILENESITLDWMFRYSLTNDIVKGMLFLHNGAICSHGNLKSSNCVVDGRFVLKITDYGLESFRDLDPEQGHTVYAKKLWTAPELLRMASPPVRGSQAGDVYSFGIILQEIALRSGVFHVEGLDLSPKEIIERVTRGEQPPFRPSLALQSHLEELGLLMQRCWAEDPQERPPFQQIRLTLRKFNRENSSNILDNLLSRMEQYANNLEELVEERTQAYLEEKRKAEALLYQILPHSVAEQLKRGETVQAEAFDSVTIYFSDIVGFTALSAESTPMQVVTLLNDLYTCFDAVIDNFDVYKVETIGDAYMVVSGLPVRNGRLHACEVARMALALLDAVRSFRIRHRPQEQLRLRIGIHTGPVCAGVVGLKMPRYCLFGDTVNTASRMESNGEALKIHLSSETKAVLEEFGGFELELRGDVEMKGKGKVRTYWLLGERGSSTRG
T1 sequence (peptide): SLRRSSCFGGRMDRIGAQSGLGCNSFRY

[2] = molecular target: T2, human NPR1 on CHO-K1 cells (human, UniProt P16066 33-1061); test: flow cytometry (FL2-H) on hNPR1 CHO-K1 cells without ANP, IgG titrated; control parental CHO-K1 [panel YY02]
T2 construct: also called hNPR1 CHO K1; human NPR1 expressing CHO-K1 cells
T2 sequence: T1 sequence

hNPR1-ANP complex [3] = molecular target: T3, hNPR1-ANP complex (human, UniProt P01160 124-151, limits assumed); test: ELISA, IgG titrated on coated antigen with ANP (250 fold molar excess), fluorescence [Cont.]
T3 construct: hNPR1 antigen in the presence of ANP; also called hNPR1 + 100 nM ANP
T3 sequence: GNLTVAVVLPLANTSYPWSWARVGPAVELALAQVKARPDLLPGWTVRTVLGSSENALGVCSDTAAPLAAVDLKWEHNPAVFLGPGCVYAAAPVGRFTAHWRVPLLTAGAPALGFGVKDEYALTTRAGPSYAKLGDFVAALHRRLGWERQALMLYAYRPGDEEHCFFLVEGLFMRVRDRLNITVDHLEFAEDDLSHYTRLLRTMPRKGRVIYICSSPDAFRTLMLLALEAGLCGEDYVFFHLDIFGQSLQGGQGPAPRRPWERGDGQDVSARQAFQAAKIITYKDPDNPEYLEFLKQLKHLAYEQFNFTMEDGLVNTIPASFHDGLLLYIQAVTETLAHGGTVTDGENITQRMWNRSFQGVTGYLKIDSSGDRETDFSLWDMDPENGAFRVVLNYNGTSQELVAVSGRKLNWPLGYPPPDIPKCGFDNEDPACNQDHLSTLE
T3 sequence (peptide): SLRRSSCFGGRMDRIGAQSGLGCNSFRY

rNPR1-ANP complex [4] = molecular target: T4, rNPR1-ANP complex (rat, UniProt P01160 124-151 (human entry), limits assumed); test: as above
T4 construct: rNPR1 antigen in the presence of ANP; also called rNPR1 + 100 nM ANP
T4 sequence: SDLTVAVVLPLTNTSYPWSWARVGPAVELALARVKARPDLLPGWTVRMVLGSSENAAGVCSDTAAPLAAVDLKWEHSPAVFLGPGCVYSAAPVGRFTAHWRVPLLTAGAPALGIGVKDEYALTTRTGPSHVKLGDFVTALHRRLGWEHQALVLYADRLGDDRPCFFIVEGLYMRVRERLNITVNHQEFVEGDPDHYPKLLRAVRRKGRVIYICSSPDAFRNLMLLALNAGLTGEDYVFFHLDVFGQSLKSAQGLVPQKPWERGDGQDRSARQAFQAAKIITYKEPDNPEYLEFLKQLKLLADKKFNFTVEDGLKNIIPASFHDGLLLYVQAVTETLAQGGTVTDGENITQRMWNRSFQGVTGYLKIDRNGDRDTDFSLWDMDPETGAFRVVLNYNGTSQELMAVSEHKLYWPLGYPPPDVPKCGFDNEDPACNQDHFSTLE
T4 sequence (peptide): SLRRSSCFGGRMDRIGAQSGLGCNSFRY

[5] = molecular target: T1, human NPR1 on CHO-K1 cells in the …; test: flow cytometry (FL2-H) on hNPR1 CHO-K1 cells with saturating ANP, IgG titrated; control parental CHO-K1 [panel YY03]
[6] = molecular target: T5, human Natriuretic Peptide Receptor 1 (hNPR1) (human, UniProt P16066 33-473, limits assumed); test: ELISA, IgG titrated on coated antigen, fluorescence [Cont.]
T5 construct: pannings used NPR1-hFc; also called NPR1-hFc
T5 sequence: T3 sequence

hNPR1-ANP complex [7] = molecular target: T3, hNPR1-ANP complex; test: ELISA, IgG titrated on coated antigen with ANP (250 fold molar excess), fluorescence [Cont.]; remark: listed apart in the source
rNPR1-ANP complex [8] = molecular target: T4, rNPR1-ANP complex; test: as above; remark: listed apart in the source
[9] = molecular target: T1, human NPR1 on CHO-K1 cells in the …; test: flow cytometry (FL2-H) on hNPR1 CHO-K1 cells with saturating ANP, IgG titrated; control parental CHO-K1 [Cont.), panel XX07]
hNPR1-ANP complex [10] = molecular target: T3, hNPR1-ANP complex; test: FRET ANP competition assay, IgG titrated on hNPR1 with Cy5-labeled ANP; negative values mean more ANP signal [Cont.), panel XX07]
Experimental: The same 31 IgGs were tested for ANP competition using a Fluorescence Resonance Energy Transfer (FRET)-based assay in which the NPR1-specific antibodies competed with ANP for binding to NPR1. In this FRET based assay (see FIG. 3), Eu-labeled Streptavidin (for measurement of IgGs) or Eu-labeled anti-hFc antibody (for measurement of FabCys) was used as an energy donor, while Cy5-labeled ANP was used as an acceptor (for all measurements). The resulting fluorescent signal was decreased by ANP-competitive antibodies. The assay was performed as follows: antibodies were mixed with NPR1 and incubated for 5 minutes at room temperature. […] After a further 60-minute incubation, readout was performed using a TECAN Infinite M1000 Pro using an excitation wavelength of 317 nm and an emission wavelength of 665 nm. Percentage of ANP competition was calculated according to the following formulae: […]
Furthermore, the clones were tested via ELISA for binding to the following antigens: human NPR1, constitutively active human NPR1 mutant (W74R), rat NPR1, human NPR3 (counter target), each in the absence and presence of ANP, and BSA. The clones were also analyzed by flow cytometry for binding to human NPR1 expressing CHO K1 cells in absence and presence of ANP (100 nM) and to parental CHO K1 cells.

hNPR1-ANP complex [11] = molecular target: T3, hNPR1-ANP complex; test: FRET ANP competition assay, IgG titrated on hNPR1 with Cy5-labeled ANP; negative values mean more ANP signal [Cont.), panel XX12]
Experimental: The same 31 IgGs were tested for ANP competition using a Fluorescence Resonance Energy Transfer (FRET)-based assay in which the NPR1-specific antibodies competed with ANP for binding to NPR1. In this FRET based assay (see FIG. 3), Eu-labeled Streptavidin (for measurement of IgGs) or Eu-labeled anti-hFc antibody (for measurement of FabCys) was used as an energy donor, while Cy5-labeled ANP was used as an acceptor (for all measurements). The resulting fluorescent signal was decreased by ANP-competitive antibodies. The assay was performed as follows: antibodies were mixed with NPR1 and incubated for 5 minutes at room temperature. After addition of the Eu-labeled donor and incubation for 30 minutes at room temperature, the Cy5-ANP solution was added. After a further 60-minute incubation, readout was performed using a TECAN Infinite M1000 Pro using an excitation wavelength of 317 nm and an emission wavelength of 665 nm. Percentage of ANP competition was calculated according to the following formulae: […]

[12] = molecular target: T1, human NPR1 on CHO-K1 cells in the …; test: flow cytometry (FL2-H) on hNPR1 CHO-K1 cells with saturating ANP, IgG titrated; control parental CHO-K1 [Cont.), panel XX12]
[13] = molecular target: T1, human NPR1 on CHO-K1 cells in the …; test: flow cytometry (FL2-H) on hNPR1 CHO-K1 cells with saturating ANP, IgG titrated; control parental CHO-K1 [panel YY01]
hNPR1-ANP complex [14] = molecular target: T3, hNPR1-ANP complex; test: ELISA, 1 µM IgG; set-up: unit not given here
[15] = molecular target: T5, human Natriuretic Peptide Receptor 1 …; test: ELISA, 1 µM IgG; set-up: unit not given here
rNPR1-ANP complex [16] = molecular target: T4, rNPR1-ANP complex; test: ELISA, 1 µM IgG; set-up: unit not given here
[17] = molecular target: T2, human NPR1 on CHO-K1 cells; test: cell-based or functional assay
[18] = molecular target: T1, human NPR1 on CHO-K1 cells in the …; test: flow cytometry, hNPR1 CHO-K1 cells, IgG
[19] = molecular target: T2, human NPR1 on CHO-K1 cells; test: flow cytometry, hNPR1 CHO-K1 cells, IgG

B1: YY02 (IgG format) (antibody, V domains shown)
VH: EVQLVESGGGLVKPGGSLRLSCAASGFTFSSYSMNWVRQAPGKGLEWVSSISSSSSYIYYADSVKGRFTISRDNAKNSLYLQMNSLRAEDTAVYYCARSGYRGVYGFDYWGQGTLVTVSS
VL: DIQMTQSPSSVSASVGDRVTITCRASQGISSWLAWYQQKPGKAPKLLIYAASSLQSGVPSRFSGSGSGTDFTLTISSLQPEDFATYYCQQYYHSPLTFGQGTKVEIKR
notes: IgG format; also called YY02_LALA
EC50 (read off the curve) [1]: ~1 nM
EC50 (read off the curve) [2]: ~200 nM
EC50 (read off the curve) (hNPR1-ANP complex [3]): ~0.8 nM
EC50 (read off the curve) (rNPR1-ANP complex [4]): ~0.3 nM

B2: YY03 (IgG format) (antibody, V domains shown)
VH: EVQLLESGGGLVQPGGSLRLSCAASGFTFSSYAISWVRQAPGKGLEWVSAISGSGGSTYYAESVKGRFTISRDNSKNTLYLQMNSLRAEDTAVYYCARESGYVYYLKFDYWGQGTLVTVSS
VL: B1 VL with V11L, G28S, W32Y, A34N, Y91H, Y92V, H93R, S94V, L96I
notes: IgG format; also called YY03_LALA
EC50 (read off the curve) [5]: ~2 nM
binding result [6]: binds
EC50 (read off the curve) (hNPR1-ANP complex [7]): ~1 nM
EC50 (read off the curve) (rNPR1-ANP complex [8]): ~0.2 nM

B3: XX07 (IgG format) (antibody, V domains shown)
VH: QVQLLESGGGLVQPGGSLRLSCAASGFTFSSYWMNWVRQAPGKGLEWVSAISSDGSYTYYADSVKGRFTISRDNSKNTLYLQMNSLRAEDTAVYYCARDRYSMIYSYGAGAFDYWGQGTLVTVSS
VL: DIQMTQSPSSLSASVGDRVTITCRASQGISSYLAWYQQKPGKAPKLLIYTASTLQSGVPSRFSGSGSGTDFTLTISSLQPEDFATYYCQQIWTVPRTFGQGTKVEIK
EC50 (read off the curve) [9]: ~2 nM
EC50 (read off the curve) (hNPR1-ANP complex [10]): ~0.3 nM

B4: XX12 (IgG format) (antibody, V domains shown)
VH: B3 VH
VL: B3 VL with T93M, V94A
EC50 (read off the curve) (hNPR1-ANP complex [11]): ~0.4 nM
EC50 (read off the curve) [12]: ~0.8 nM

B5: YY01 (IgG format) (antibody, V domains shown)
VH: EVQLVESGGGLVQPGGSLRLSCAASGFTFSSYWISWVRQAPGKGLEWVANIKQSGSETYYVESVKGRFTISRDNAKNSLYLQMNSLRAEDTAVYYCARSLRRRSTEHAGFDVWGQGTLVTVSS
VL: DIQMTQSPSSLSASVGDRVTITCRASQGISNYLAWYQQKPGKVPKLLIYAASTLQSGVPSRFSGSGSGTDFTLTISSLQPEDVATYYCQQADKFPYTFGQGTKVEIKR
notes: also called YY01_LALA
EC50 (read off the curve) [13]: ~0.2 nM
ELISA binding at 1 µM IgG (hNPR1-ANP complex [14]): 76
ELISA binding at 1 µM IgG [15]: 54
ELISA binding at 1 µM IgG (rNPR1-ANP complex [16]): 50
cGMP conc [nM] at 1 µM IgG, +0.075 nM ANP [17]: 14 nM
cGMP conc [nM] at 1 µM IgG, without ANP [17]: 5 nM
flow cytometry S/BG at 1 µM IgG [18]: 21 S/BG
flow cytometry S/BG at 1 µM IgG [19]: 35 S/BG
